# Laboratory results: paper PMC10269531, “NH125 Sensitizes Staphylococcus aureus to Cell Wall-Targeting Antibiotics through the Inhibition of the VraS Sensor Histidine Kinase” (Microbiology Spectrum, 2023)
# Experiments:
# [1] = target: T1, VraS sensor histidine kinase (GST-VraS) (Staphylococcus aureus, UniProt Q99SZ7); test: PK/LDH-coupled ATPase (autophosphorylation) assay, NADH absorbance at […] nm; Michaelis-Menten inhibition kinetics; type: biochemical
# T1 construct: GST-tagged intracellular domain, amino acids 85 to 347 (DHp and CAT)
# [2] = tested on: Nc1ncnc2c1ncn2[C@@H]1O[C@H](COP(=O)(O)OP(=O)(O)OP(=O)(O)O)[C@@H](O)[C@H]1O; test: PK/LDH-coupled ATPase assay, Michaelis-Menten kinetics (KM of ATP); type: biochemical, Staphylococcus aureus; conditions: Mg2+ catalytic domain (CAT) that binds ATP
IC50 [1] [µM],Molecule,Km [2] [µM],Vmax [2] [µmol/min],kcat [2] [s⁻¹],kcat/Km [2] [M⁻¹ s⁻¹]
41 ± 5,CCCCCCCCCCCCCCCC[n+]1ccn(Cc2ccccc2)c1C [NH125],,,,
,VraS sensor histidine kinase (GST-VraS) (Staphylococcus aureus subsp. aureus N315),6.7 ± 1.6,0.000108,0.0169 ± 0.0056,2600 ± 600
